In US20210388087A1 (Chugai, published 2021):
Where a chain is given by its changes, count along the chain named. Values belong to the binder of their own block, whether it stands above or below them.

Biological target: T1, CD3 epsilon homodimer protein (UniProt P07766 23-126)
T1 construct: also called CD3 (CD3 epsilon)
Test: SPR Biacore T200, CD3e homodimer on chip, vs unaltered GLS3000 antibody
Experimental: An appropriate amount of CD3 epsilon homodimer protein was immobilized onto Sensor chip CM4 (GE Healthcare Japan Corp.) by the amine coupling method. Then, the antibody having an appropriate concentration was injected thereto as an analyte and allowed to interact with the CD3 epsilon homodimer protein on the sensor chip. Then, the sensor chip was regenerated by the injection of 10 mmol/L glycine-HCl (pH 1.5). The assay was conducted at 25 degrees C., and HBS-EP+(GE Healthcare Japan Corp.) was used as a running buffer. […] Each parameter was calculated using Biacore T200 Evaluation Software (GE Healthcare Japan Corp.).

T1 sequence (P07766 23-126): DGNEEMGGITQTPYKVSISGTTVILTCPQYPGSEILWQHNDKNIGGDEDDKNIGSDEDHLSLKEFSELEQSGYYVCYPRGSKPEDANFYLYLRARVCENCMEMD

ratio of amounts bound (Z=Y/X): 0.67
B1: GLS3000 R29G (antibody, name in Kabat numbering, V domains shown)
VH: QVQLVESGGGVVQPGRSLRLSCAASGFTFSNAWMHWVRQAPGKGLEWVAQIKAKSNNYATYYAESVKGRFTISRDDSKNSLYLQMNSLKTEDTAVYYCRYVHYGAYYGVDAWGQGTTVTVSS
VL: DIVMTQSPLSLPVTPGEPASISCRSSQSLVHSNGNTYLHWYQQKPGQAPRLLIYKVSNRFSGVPDRFSGSGSGTDFTLKISRVEAEDVGVYYCGQGTQVPYTFGQGTKLEIK
notes: one-arm IgG as m2

ratio of amounts bound (Z=Y/X): 0.68
B2: GLS3000 R29S (antibody, name in Kabat numbering, V domains shown)
VH: B1 VH
VL: B1 VL with G34S
notes: one-arm IgG as m2

ratio of amounts bound (Z=Y/X): 0.34
B3: GLS3000 R29V (antibody, name in Kabat numbering, V domains shown)
VH: B1 VH
VL: B1 VL with G34V
notes: one-arm IgG as m2

ratio of amounts bound (Z=Y/X): 0.67
B4: GLS3000 R54G (antibody, name in Kabat numbering, V domains shown)
VH: B1 VH
VL: B1 VL with G34R, R59G
notes: one-arm IgG as m2

ratio of amounts bound (Z=Y/X): 0.78
B5: GLS3000 R54W (antibody, name in Kabat numbering, V domains shown)
VH: B1 VH
VL: B1 VL with G34R, R59W
notes: one-arm IgG as m2

ratio of amounts bound (Z=Y/X): 0.63
B6: GLS3000 R29T (antibody, name in Kabat numbering, V domains shown)
VH: B1 VH
VL: B1 VL with G34T
notes: one-arm IgG as m2

ratio of amounts bound (Z=Y/X): 0.68
B7: GLS3000 R54Q (antibody, name in Kabat numbering, V domains shown)
VH: B1 VH
VL: B1 VL with G34R, R59Q
notes: one-arm IgG as m2

ratio of amounts bound (Z=Y/X): 0.79
B8: GLS3000 R54S (antibody, name in Kabat numbering, V domains shown)
VH: B1 VH
VL: B1 VL with G34R, R59S
notes: one-arm IgG as m2

ratio of amounts bound (Z=Y/X): 0.31
B9: GLS3000 R29P (antibody, name in Kabat numbering, V domains shown)
VH: B1 VH
VL: B1 VL with G34P
notes: one-arm IgG as m2

ratio of amounts bound (Z=Y/X): 0.58
B10: GLS3000 R54E (antibody, name in Kabat numbering, V domains shown)
VH: B1 VH
VL: B1 VL with G34R, R59E
notes: one-arm IgG as m2

ratio of amounts bound (Z=Y/X): 0.69
B11: GLS3000 R54A (antibody, name in Kabat numbering, V domains shown)
VH: B1 VH
VL: B1 VL with G34R, R59A
notes: one-arm IgG as m2

ratio of amounts bound (Z=Y/X): 0.69
B12: GLS3000 R29Y (antibody, name in Kabat numbering, V domains shown)
VH: B1 VH
VL: B1 VL with G34Y
notes: one-arm IgG as m2

ratio of amounts bound (Z=Y/X): 0.56
B13: GLS3000 R29L (antibody, name in Kabat numbering, V domains shown)
VH: B1 VH
VL: B1 VL with G34L
notes: one-arm IgG as m2

ratio of amounts bound (Z=Y/X): 0.84
B14: GLS3000 R54P (antibody, name in Kabat numbering, V domains shown)
VH: B1 VH
VL: B1 VL with G34R, R59P
notes: one-arm IgG as m2

ratio of amounts bound (Z=Y/X): 0.37
B15: GLS3000 R29I (antibody, name in Kabat numbering, V domains shown)
VH: B1 VH
VL: B1 VL with G34I
notes: one-arm IgG as m2

ratio of amounts bound (Z=Y/X): 0.36
B16: GLS3000 R54D (antibody, name in Kabat numbering, V domains shown)
VH: B1 VH
VL: B1 VL with G34R, R59D
notes: one-arm IgG as m2

ratio of amounts bound (Z=Y/X): 0.65
B17: GLS3000 R54T (antibody, name in Kabat numbering, V domains shown)
VH: B1 VH
VL: B1 VL with G34R, R59T
notes: one-arm IgG as m2
